This assay addresses PIN1 (UniProt Q13526). The assay can be described thus: His-tagged peptide binding to GST-PIN1. Conditions: reference: nonphosphorylated S203/P204 peptide; sites S203.

Regarding “PGK1 (phosphoglycerate kinase 1) oligopeptide containing S203/P204, borders not given (from UniProt P00558) pS203/P204 peptide”, the “binding against the reference” value is “stronger”.

These data come from publication PMC4888784.
